Source: the DeepSol protein solubility set

Assay: soluble on expression in E. coli; label from the status in PepcDB or PDB records

Sequence: MGSDKIHHHHHHMANNNGKDKSLESWIWDAACSIRGAKDAPKYKDYILPLIFTKRLCDVFDDELNRIAAEVGSRKKAFQLAKADHKLVRFYLPLVPDDPEQPVWSVIRKLSDWIGEGVTSHMRAIARENPLLQGIIDRVDFNATTHGQRDLDDDRLSNLIEAISTKRLGLEDVEADIIGKSYEYLIRKFAEGGGQSAGEFYTPPEVGTIMSRVLQPEPGMEIYDPTCGSGGLLVKCEIAMEETAKGKKRTVAPLKLFGQEFTPETWAMANMNMIIHDMEGQIEIGDTFKNPKFRSKGKLRTFDRVVANPMWNQDWFTEADYDNDELDRFPAGAGFPGKSSADWGWVQHIHASMNATGRAAVVLDTGAASRGSGNAGTNKEKTVRQWFVDHDLIESVLYLPENLFYNTTAPGIVLFLNKAKAHERKGKVFLVNASQVFEKGDPKNFIPEAGIQRIADTLIGWVEAEKLSRIVDHAELKKNDYNISPSRYIHTSDAETYRPIAEIVEELEAIEAEAKETDQALDRILKQLGIGA
- soluble on expression in E. coli: not soluble

Sequence: MKKFAAVIAVMALCSAPVMAAEQGGFSGPSATQSQAGGFQGPNGSVTTVESAKSLRDDTWVTLRGNIVERISDDLYVFKDASGTINVDIDHKRWNGVTVTPKDTVEIQGEVDKDWNSVEIDVKQIRKVNP
- soluble on expression in E. coli: soluble

Sequence: GSYAEGQKKRRNTLHEFKKSAKTTLTKEDPLLKIKTKKVNSADECANRCIRNRGFTFTCKAFVFDKSRKRCYWYPFNSMSSGVKKGFGHEFDLYENKDYIRNCIIGKGGSYKGTVSITKSGIKCQPWNSMIPHEHSFLPSSYRGKDLQENYCRNPRGEEGGPWCFTSNPEVRYEVCDIPQCSEV
- soluble on expression in E. coli: soluble

Sequence: MIEFRQVSKTFNKKKQKIDALKDVSFTVNRNDIFGVIGYSGAGKSTLVRLVNHLEAASNGQVIVDGHDITNYSDKMMRDIKKDIGMIFQHFNLLNSATVFKNVAMPLILSKKSKTEIKQRVTEMLEFVGLSDKKDQFPDELSGGQKQRVAIARALVTNPKILLCDEATSALDPATTASILTLLKNVNQTFGITIMMITHEMRVIKDICNRVAVMEKGKVVETGTVKEVFSHPKTTIAQNFVSTVIQTEPSTSLIRRLNDEQVGDFKDYKIFVEETQVTQPIINDLIQICGREVKILFSSMSEIQGNTVCYMWLRFNMDQQFEDTAINQYFKEKNIQFEEVH
- soluble on expression in E. coli: not soluble

Sequence: MKIKILVDEYNTQKEQAKKVRKATSLYFRIHPSIMASKTLRVLFLGPKGTYSHQAALQQFQSTSDVEYLPAASIPQCFNQLENDTSIDYSVVPLENSTNGQVVFSYDLLRDRMIKKALSLPAPADTNRITPDIEVIAEQYVPITHCLISPIQLPNGIASLGNFEEVIIHSHPQVWGQVECYLRSMAEKFPQVTFIRLDCSSTSESVNQCIRSSTADCDNILHLAIASETAAQLHKAYIIEHSINDKLGNTTRFLVLKRRENAGDNEVEDTGLLRVNLLTFTTRQDDPGSLVDVLNILKIHSLNMCSINSRPFHLDEHDRNWRYLFFIEYYTEKNTPKNKEKFYEDISDKSKQWCLWGTFPRNERYYHK
- soluble on expression in E. coli: not soluble

Sequence: MAHHHHHHMNLNKKNEELEKVKIVLTQKIKNLESNLSPKESEIKVMREKIDEMAKSFENNHKKRVNLQIEINEYKMKIKFLHDDLLNYNKTIMNYEKILKNLQDHIKECYLHLHDKKIFNSSFLNLYNKFHKVNDVQNYDAKNVFSEYIRQKEYLENMIEVLKDKLHKETEAFRNEKIKMMNENSLLLKEINDLKMDLNFLKSECHEAQLQNRKMKFLKKRSESKERKKEKKEKKEKKEKKENKDNNEEKNIDIK
- soluble on expression in E. coli: soluble

Sequence: MAEPVRLGRKRPLPVCPNPLFVRWLTEWRDEAASRGRHTRFVFQKALRSLQRYPLPLRSGKEAKILQHFGDRLCRMLDEKLKQHLASGGD
- soluble on expression in E. coli: soluble

Sequence: MGSDKIHHHHHHCGVEEKTEVQLLKEMPKPKAMTIDPSLSQKEATEMVHAAQRFYAFWDTGKEELIPQTVTENFFDHTLPKGRPQGTEGLKFAAQNFRKIVPNIHCEIEDLLVVGDKVTARLSFTGTHNDKKIDFFAIDILHVKDGKITEDWHLEDNLTLKQQLGLIAEE
- soluble on expression in E. coli: not soluble

Sequence: MDNRSASLHSDIDTVLNNYDYDFAEVEIAVLGNGHINNTYKLTTPEVEFVLQQINHDVFPKTAELSSNAQKINLHLQRQKNIGNYPLSIPQQILSKTGETYSKVGTNYWRLMEFISNSYTLEEVESPEQAALVANAFAEFSCTLSDFPVEELAVIIEDFHDISFRMRQLNEAVENDLQDRLSSCQTLVNFCLDQQDFINHVIDISKKLPLHVTHNDTKINNLLFTEGDTPCAVIDLDTCMPGLLMHDFGDMVRTCCSNLAEDDTNIDAMIIKLDIFSALIQSYQNAFGTKMSALEKDSLIVGTKSVPFSLGTRFLTDYLNGDSYFQVSREKHNLDRAFNQIQLFILLCEAEPELIKLAMQALEHHHHHH
- soluble on expression in E. coli: not soluble
